The labels stand for the following.
B1: Glucocorticoid receptor, P04150 (parent)
chain: MDSKESLTPGREENPSSVLAQERGDVMDFYKTLRGGATVKVSASSPSLAVASQSDSKQRRLLVDFPKGSVSNAQQPDLSKAVSLSMGLYMGETETKVMGNDLGFPQQGQISLSSGETDLKLLEESIANLNRSTSVPENPKSSASTAVSAAPTEKEFPKTHSDVSSEQQHLKGQTGTNGGNVKLYTTDQSTFDILQDLEFSSGSPGKETNESPWRSDLLIDENCLLSPLAGEDDSFLLEGNSNEDCKPLILPDTKPKIKDNGDLVLSSPSNVTLPQVKTEKEDFIELCTPGVIKQEKLGTVYCQASFPGANIIGNKMSAISVHGVSTSGGQMYHYDMNTASLSQQQDQKPIFNVIPPIPVGSENWNRCQGSGDDNLTSLGTLNFPGRTVFSNGYSSPSMRPDVSSPPSSSSTATTGPPPKLCLVCSDEASGCHYGVLTCGSCKVFFKRAVEGQHNYLCAGRNDCIIDKIRRKNCPACRYRKCLQAGMNLEARKTKKKIKGIQQATTGVSQETSENPGNKTIVPATLPQLTPTLVSLLEVIEPEVLYAGYDSSVPDSTWRIMTTLNMLGGRQVIAAVKWAKAIPGFRNLHLDDQMTLLQYSWMFLMAFALGWRSYRQSSANLLCFAPDLIINEQRMTLPCMYDQCKHMLYVSSELHRLQVSYEEYLCMKTLLLLSSVPKDGLKSQELFDEIRMTYIKELGKAIVKREGNSSQNWQRFYQLTKLLDSMHEVVENLLNYCFQTFLDKTMSIEFPEMLAEIITNQIPKYSNGNIKKLLFHQK

One may read the Tm as the temperature at the midpoint of the melting transition.

The variants in this data set derive from B1. Particulars: Homo sapiens; pH 7.8; Thermal; CD; Tris-HCl 25mM; structure 1M2Z; whole UniProt chain shown.
On to E705G, for which the Tm was 46.6 °C.

In the case of F602S A605V M752T M560K, the Tm was 49.9 °C.

F602S A605V: the Tm is 54 °C.

Turning to M752T, the Tm is 48.6 °C.

Consider A605V M752T V702A, for which the Tm was determined as 53.6 °C.

Consider A605V M752T E705G, for which the Tm turned out to be 52.9 °C.

Consider F602S A605V M752T V702A E705G, for which the Tm was found to be 58.6 °C.

Take F602S: the Tm was determined as 50.3 °C.

As for V702A, the Tm stood at 47.2 °C.

For the variant A605V M752T V702A E705G, the Tm came out at 54.4 °C.

For A605V, the Tm was found to be 49.3 °C.

Regarding A605V M752T, the Tm was determined as 51.5 °C.

Turning to F602S A605V M752T, the midpoint of thermal melting (Tm) worked out at 56 °C.

The values are drawn from FireProtDB (doi:10.1016/j.jmb.2010.08.048).
